Experimental data from patent US20200102387A1 (CELGENE, published 2020).

T1: SIRPβ extracellular domain (human, UniProt O00241 30-371)
T1 construct: also called hSIRPβ - ECD
T1 chain: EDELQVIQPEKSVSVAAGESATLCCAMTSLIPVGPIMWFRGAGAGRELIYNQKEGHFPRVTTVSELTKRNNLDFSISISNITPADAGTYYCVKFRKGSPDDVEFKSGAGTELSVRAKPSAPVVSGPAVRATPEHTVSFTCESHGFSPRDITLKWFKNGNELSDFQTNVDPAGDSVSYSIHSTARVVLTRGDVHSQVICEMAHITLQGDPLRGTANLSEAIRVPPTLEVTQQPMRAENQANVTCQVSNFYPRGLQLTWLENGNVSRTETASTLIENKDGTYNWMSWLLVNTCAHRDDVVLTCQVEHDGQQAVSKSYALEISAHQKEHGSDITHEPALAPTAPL

T2: cynomolgus SIRPα on cells (cynomolgus, UniProt P78324 31-373 (human entry))
T2 construct: also called cyno SIRPα-CHO; Cyno SIRPα-CHO-K1; not shown: Transmembrane and cytoplasmic region of cynomolgus SIRPα
T2 chain: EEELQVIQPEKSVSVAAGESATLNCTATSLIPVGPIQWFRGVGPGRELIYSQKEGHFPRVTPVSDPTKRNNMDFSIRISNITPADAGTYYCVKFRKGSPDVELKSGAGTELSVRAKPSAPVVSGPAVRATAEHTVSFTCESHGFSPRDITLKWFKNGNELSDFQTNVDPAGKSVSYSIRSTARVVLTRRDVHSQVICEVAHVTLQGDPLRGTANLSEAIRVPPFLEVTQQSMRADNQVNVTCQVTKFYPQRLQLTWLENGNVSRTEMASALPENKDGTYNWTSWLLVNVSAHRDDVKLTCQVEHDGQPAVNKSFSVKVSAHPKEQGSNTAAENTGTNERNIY

T3: mouse SIRPα on cells (mouse, UniProt P97797 32-513)
T3 construct: whole, on cells; also called mouse SIRPα-CHO-K1; Ms SIRPα-CHO-K1
T3 sequence (looked up): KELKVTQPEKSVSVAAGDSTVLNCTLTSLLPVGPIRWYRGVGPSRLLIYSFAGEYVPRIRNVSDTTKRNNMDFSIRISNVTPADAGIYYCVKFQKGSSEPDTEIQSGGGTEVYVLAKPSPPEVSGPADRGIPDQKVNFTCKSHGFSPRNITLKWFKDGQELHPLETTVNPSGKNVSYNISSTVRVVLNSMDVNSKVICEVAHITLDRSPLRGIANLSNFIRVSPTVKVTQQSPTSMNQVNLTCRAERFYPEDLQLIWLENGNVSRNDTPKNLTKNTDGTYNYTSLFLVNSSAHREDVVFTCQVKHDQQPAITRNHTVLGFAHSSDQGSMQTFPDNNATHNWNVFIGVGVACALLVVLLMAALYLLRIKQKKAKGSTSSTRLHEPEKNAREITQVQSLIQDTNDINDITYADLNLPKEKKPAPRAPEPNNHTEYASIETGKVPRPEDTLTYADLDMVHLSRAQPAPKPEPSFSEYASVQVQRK

B1: SIRPAB-12-K322A (antibody, human IgG1, kappa)
light: DIQMTQSPSSVSASVGDRVTITCRASQGISSWLAWYQQKPGKAPKLLIYAASNLQSGVPSRFSGSGSGTDFTLTISSLQPEDFATYYCQQGASFPITFGGGTKVEIKRTVAAPSVFIFPPSDEQLKSGTASVVCLLNNFYPREAKVQWKVDNALQSGNSQESVTEQDSKDSTYSLSSTLTLSKADYEKHKVYACEVTHQGLSSPVTKSFNRGEC
heavy: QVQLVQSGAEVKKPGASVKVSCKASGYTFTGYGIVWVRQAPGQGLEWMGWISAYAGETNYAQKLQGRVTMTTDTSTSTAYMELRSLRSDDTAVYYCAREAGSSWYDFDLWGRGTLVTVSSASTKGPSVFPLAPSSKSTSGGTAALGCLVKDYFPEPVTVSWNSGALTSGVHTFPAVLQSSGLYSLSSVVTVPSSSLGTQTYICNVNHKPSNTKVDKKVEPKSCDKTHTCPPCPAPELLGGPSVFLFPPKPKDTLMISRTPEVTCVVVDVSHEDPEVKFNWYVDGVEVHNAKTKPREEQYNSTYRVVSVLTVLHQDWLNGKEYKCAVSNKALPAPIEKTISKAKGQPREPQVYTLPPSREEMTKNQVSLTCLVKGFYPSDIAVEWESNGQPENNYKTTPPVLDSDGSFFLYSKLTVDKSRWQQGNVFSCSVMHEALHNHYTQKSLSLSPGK
notes: human IgG1 with K322A
B2: SIRPAB-12 (antibody, human IgG1, kappa)
light: DIQMTQSPSSVSASVGDRVTITCRASQGISSWLAWYQQKPGKAPKLLIYAASNLQSGVPSRFSGSGSGTDFTLTISSLQPEDFATYYCQQGASFPITFGGGTKVEIKRTVAAPSVFIFPPSDEQLKSGTASVVCLLNNFYPREAKVQWKVDNALQSGNSQESVTEQDSKDSTYSLSSTLTLSKADYEKHKVYACEVTHQGLSSPVTKSFNRGEC
heavy: not shown
B3: SIRPAB-11 (antibody, human IgG1, kappa)
light: DIQMTQSPSSVSASVGDRVTITCRASQGISSWLAWYQQKPGKAPKLLIYAASNLQSGVPSRFSGSGSGTDFTLTISSLQPEDFATYYCQQGASFPITFGGGTKVEIKRTVAAPSVFIFPPSDEQLKSGTASVVCLLNNFYPREAKVQWKVDNALQSGNSQESVTEQDSKDSTYSLSSTLTLSKADYEKHKVYACEVTHQGLSSPVTKSFNRGEC
heavy: not shown
notes: also called SIRPAB-11-IgG1; SIRPAB-11 IgG1 antibody
B4: SIRPAB-17 (antibody, human IgG1, kappa, V domains shown)
VH: QVQLQESGPGLVKPSQTLSLTCTVSGGSISSGGYYWSWIRQHPGKGLEWIGAIYYSGPIYYNPSLKSRVTISVDTSKNQFSLKLSSVTAADTAVYYCAREGYHSGMDVWGQGTTVTVSS
VL: DIQMTQSPSSLSASVGDRVTITCQASQDISNYLNWYQQKPGKAPKLLIYDASNLATGVPSRFSGSGSGTDFTFTISSLQPEDIATYYCQQFAYLPWTFGGGTKVEIKR
B5: SIRPAB-21 (antibody, human IgG1, kappa, V domains shown)
VH: QVQLQESGPGLVKPSQTLSLTCTVSGGSISSGGYYWSWIRQHPGKGLEWIGAIYYSGPIYYNPSLKSRVTISVDTSKNQFSLKLSSVTAADTAVYYCSKEGYHSGMDVWGQGTTVTVSS
VL: DIQMTQSPSSLSASVGDRVTITCQASDDISDYLNWYQQKPGKAPKLLIYDASNLETGVPSRFSGSGSGTDFTFTISSLQPEDIATYYCQQFAYLPWTFGGGTKVEIKR

Tests used:
[1] = target: T4, extracellular domain of SIRPα v1-DLN (e.g. SIRPα1) (human, UniProt P78324 31-373); test: SPR Biacore T200, antibody on Protein A chip, 1:1 Langmuir fit
T4 construct: also called hSIRPα - ECD (v1)

[2] = target: T1, SIRPβ extracellular domain; test: as above
[3] = target: T5, SIRPγ extracellular domain (human, UniProt Q9P1W8 29-360); test: as above
T5 construct: also called hSIRPγ - ECD

[4] = target: T6, human SIRPα v1-Fc (SIRPα1 extracellular domain fused to human IGHG1_Fc) (human, UniProt P78324 31-373; P0DOX5 223-449 = IgG part); test: BLI Octet, antigen-Fc on biosensor;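 note: antigen captured on the biosensor tip and then immersed in solutions of the test antibodies, which act as the analyte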
T6 construct: also called V1 (e.g. SIRPα1); SIRPα V1: DLN

[5] = target: T7, human SIRPα v2-Fc (SIRPα2 extracellular domain fused to human IGHG1_Fc) (human, UniProt P78324 31-373; P0DOX5 223-449 = IgG part); test: BLI Octet, antigen-Fc on biosensor;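 note: antigen captured on the biosensor tip and then immersed in solutions of the test antibodies, which act as the analyte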
T7 construct: as m38; also called V2 (e.g. SIRPα2); SIRPα V2:ESE

[6] = target: T8, human SIRPα v3-Fc (SIRPα3 extracellular domain fused to human IGHG1_Fc) (human, UniProt P78324 31-373; P0DOX5 223-449 = IgG part); test: BLI Octet, antigen-Fc on biosensor;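 note: antigen captured on the biosensor tip and then immersed in solutions of the test antibodies, which act as the analyte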
T8 construct: as m38; also called V3 (e.g. SIRPα3)

[7] = target: T9, human SIRPα v4-Fc (SIRPα4 extracellular domain fused to human IGHG1_Fc) (human, UniProt P78324 31-373; P0DOX5 223-449 = IgG part); test: BLI Octet, antigen-Fc on biosensor;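 note: antigen captured on the biosensor tip and then immersed in solutions of the test antibodies, which act as the analyte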
T9 construct: as m38; also called V4 (e.g. SIRPα4)

[8] = target: T10, human SIRPα v5-Fc (SIRPα5 extracellular domain fused to human IGHG1_Fc) (human, UniProt P78324 31-373; P0DOX5 223-449 = IgG part); test: BLI Octet, antigen-Fc on biosensor
T10 construct: as m38; also called V5 (e.g. SIRPα5)

[9] = target: T11, human SIRPα v6-Fc (SIRPα6 extracellular domain fused to human IGHG1_Fc) (human, UniProt P78324 31-373; P0DOX5 223-449 = IgG part); test: BLI Octet, antigen-Fc on biosensor
T11 construct: as m38; also called V6 (e.g. SIRPα6)

human SIRPβ-Fc = target: T12, human SIRPβ-Fc (human); test: BLI Octet, antigen-Fc on biosensor
T12 construct: a signal peptide may be part of the entry

human SIRPγ-Fc = target: T13, human SIRPγ-Fc (human); test: BLI Octet, antigen-Fc on biosensor
T13 construct: a signal peptide may be part of the entry

mouse SIRPα-Fc [10] = target: T14, mouse SIRPα-Fc (mouse); test: BLI Octet, antigen-Fc on biosensor
T14 construct: a signal peptide may be part of the entry; also called Ms; Ms SIRPα-Fc

human SIRPα on cells = target: T15, human SIRPα on cells (human, UniProt P78324 31-504); test: cell binding, Hu SIRPα-CHO-K1 cells, 100 nM antibody
T15 construct: whole, on cells; also called human SIRPα-CHO; Hu SIRPα-CHO-K1

[11] = target: T2, cynomolgus SIRPα on cells; test: cell binding, Cyno SIRPα-CHO-K1 cells, 100 nM antibody
mouse SIRPα on cells [12] = target: T3, mouse SIRPα on cells; test: flow cytometry of mouse CD11b positive cells, FL2-H anti-human PE; concentration not given
cyno SIRPα-Fc = target: T16, cyno SIRPα-Fc (cynomolgus); test: BLI Octet, antigen-Fc on biosensor
T16 construct: a signal peptide may be part of the entry

mouse SIRPα-Fc [13] = target: T14, mouse SIRPα-Fc; test: BLI Octet, antigen-Fc on biosensor; remark: listed apart in the source
NOD/SCID mouse SIRPα-Fc = target: T17, NOD/SCID mouse SIRPα-Fc (mouse (NOD/SCID)); test: BLI Octet, antigen-Fc on biosensor
T17 construct: a signal peptide may be part of the entry; also called NOD/SCID Ms SIRPα-Fc

mouse SIRPα on cells [14] = target: T3, mouse SIRPα on cells; test: cell binding, Ms SIRPα-CHO-K1 cells, 100 nM antibody

T17 sequence (chain, as listed by the source limits assumed): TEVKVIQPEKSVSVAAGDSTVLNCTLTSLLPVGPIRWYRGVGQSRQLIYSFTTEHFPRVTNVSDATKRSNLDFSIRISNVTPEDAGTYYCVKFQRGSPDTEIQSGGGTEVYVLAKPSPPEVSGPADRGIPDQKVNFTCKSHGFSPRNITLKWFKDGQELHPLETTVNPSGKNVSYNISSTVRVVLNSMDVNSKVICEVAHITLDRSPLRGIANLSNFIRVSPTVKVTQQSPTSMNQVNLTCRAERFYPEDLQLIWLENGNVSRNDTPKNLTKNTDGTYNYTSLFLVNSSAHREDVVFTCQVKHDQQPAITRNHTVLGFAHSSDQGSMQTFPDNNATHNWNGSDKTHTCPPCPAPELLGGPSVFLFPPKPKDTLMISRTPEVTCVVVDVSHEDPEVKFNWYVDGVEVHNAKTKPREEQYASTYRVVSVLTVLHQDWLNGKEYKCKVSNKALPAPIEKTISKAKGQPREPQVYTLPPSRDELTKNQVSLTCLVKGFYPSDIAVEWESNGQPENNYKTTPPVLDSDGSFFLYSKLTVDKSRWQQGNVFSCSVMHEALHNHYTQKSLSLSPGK
T5 sequence (Q9P1W8 29-360 limits assumed): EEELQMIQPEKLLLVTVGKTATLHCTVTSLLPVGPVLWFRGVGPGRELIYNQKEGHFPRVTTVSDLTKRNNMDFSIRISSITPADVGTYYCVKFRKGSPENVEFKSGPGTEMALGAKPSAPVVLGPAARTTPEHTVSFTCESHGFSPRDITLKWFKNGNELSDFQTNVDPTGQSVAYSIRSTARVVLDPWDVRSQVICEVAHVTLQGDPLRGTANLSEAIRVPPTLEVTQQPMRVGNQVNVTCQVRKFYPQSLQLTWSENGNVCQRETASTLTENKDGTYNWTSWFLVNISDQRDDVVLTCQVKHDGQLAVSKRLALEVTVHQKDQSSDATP

| Kd [4] [nM] | koff [4] [s⁻¹] | kon [4] [M⁻¹ s⁻¹] | Kd [5] [nM] | koff [5] [s⁻¹] | kon [5] [M⁻¹ s⁻¹] | Kd [6] [nM] | koff [6] [s⁻¹] | kon [6] [M⁻¹ s⁻¹] | Kd [7] [nM] | koff [7] [s⁻¹] | kon [7] [M⁻¹ s⁻¹] | Kd [8] [nM] | koff [8] [s⁻¹] | kon [8] [M⁻¹ s⁻¹] | Kd [9] [nM] | koff [9] [s⁻¹] | kon [9] [M⁻¹ s⁻¹] | Kd (human SIRPβ-Fc) [nM] | koff (human SIRPβ-Fc) [s⁻¹] | also measured | Binder |
| --- | --- | --- | --- | --- | --- | --- | --- | --- | --- | --- | --- | --- | --- | --- | --- | --- | --- | --- | --- | --- | --- |
| – | – | – | – | – | – | – | – | – | – | – | – | – | – | – | – | – | – | – | – | Kd [1]: 0.424 nM; Kd [2]: 2.08 nM; Kd [3]: 0.351 nM | B1 |
| 0.81 | 0.00107 | 1.31e+06 | 15.4 | 0.0151 | 980000 | 0.53 | 0.000694 | 1.31e+06 | 8.13 | 0.0109 | 1.35e+06 | 4.87 | 0.00697 | 1.43e+06 | 1.58 | 0.00256 | 1.63e+06 | 3.35 | 0.00445 | kon (human SIRPβ-Fc): 1.33e+06 M⁻¹ s⁻¹; Kd (human SIRPγ-Fc): 1.49 nM; koff (human SIRPγ-Fc): 0.00218 s⁻¹; kon (human SIRPγ-Fc): 1.46e+06 M⁻¹ s⁻¹; binding result (mouse SIRPα-Fc [10]): no binding; fold increase over background (100 nM) (human SIRPα on cells): 2350 fold; fold increase over background (100 nM) [11]: 2220 fold; binding result (mouse SIRPα on cells [12]): no binding | B2 |
| 0.13 | 0.0002 | 1.49e+06 | 4.4 | 0.00559 | 1.27e+06 | 0.145 | 0.0002 | 1.38e+06 | 1.52 | 0.00228 | 1.5e+06 | 0.611 | 0.00106 | 1.73e+06 | 0.183 | 0.000356 | 1.94e+06 | 0.32 | 0.000473 | kon (human SIRPβ-Fc): 1.49e+06 M⁻¹ s⁻¹; Kd (human SIRPγ-Fc): 0.13 nM; koff (human SIRPγ-Fc): 0.000205 s⁻¹; kon (human SIRPγ-Fc): 1.57e+06 M⁻¹ s⁻¹; Kd (cyno SIRPα-Fc): 4.9 nM; koff (cyno SIRPα-Fc): 0.00869 s⁻¹; kon (cyno SIRPα-Fc): 1.77e+06 M⁻¹ s⁻¹; binding result (mouse SIRPα-Fc [10]): no binding; fold increase over background (100 nM) (human SIRPα on cells): 1890 fold; fold increase over background (100 nM) [11]: 1950 fold; binding result (mouse SIRPα on cells [12]): no binding | B3 |
| – | – | – | – | – | – | – | – | – | – | – | – | – | – | – | – | – | – | – | – | Kd (mouse SIRPα-Fc [13]): 17.3 nM; koff (mouse SIRPα-Fc [13]): 0.00373 s⁻¹; kon (mouse SIRPα-Fc [13]): 220000 M⁻¹ s⁻¹; Kd (NOD/SCID mouse SIRPα-Fc): 152 nM; koff (NOD/SCID mouse SIRPα-Fc): 0.0228 s⁻¹; kon (NOD/SCID mouse SIRPα-Fc): 150000 M⁻¹ s⁻¹; fold increase over background (100 nM) (mouse SIRPα on cells [14]): 449 fold | B4 |
| – | – | – | – | – | – | – | – | – | – | – | – | – | – | – | – | – | – | – | – | Kd (mouse SIRPα-Fc [13]): 1.46 nM; koff (mouse SIRPα-Fc [13]): 0.000708 s⁻¹; kon (mouse SIRPα-Fc [13]): 490000 M⁻¹ s⁻¹; Kd (NOD/SCID mouse SIRPα-Fc): 5.43 nM; koff (NOD/SCID mouse SIRPα-Fc): 0.0019 s⁻¹; kon (NOD/SCID mouse SIRPα-Fc): 350000 M⁻¹ s⁻¹; fold increase over background (100 nM) (mouse SIRPα on cells [14]): 2440 fold | B5 |
